Where no end group is shown, it is not given here.
Target: T1, mCerulean-tagged GIPC (human, UniProt O14908 1-333)
T1 sequence (looked up): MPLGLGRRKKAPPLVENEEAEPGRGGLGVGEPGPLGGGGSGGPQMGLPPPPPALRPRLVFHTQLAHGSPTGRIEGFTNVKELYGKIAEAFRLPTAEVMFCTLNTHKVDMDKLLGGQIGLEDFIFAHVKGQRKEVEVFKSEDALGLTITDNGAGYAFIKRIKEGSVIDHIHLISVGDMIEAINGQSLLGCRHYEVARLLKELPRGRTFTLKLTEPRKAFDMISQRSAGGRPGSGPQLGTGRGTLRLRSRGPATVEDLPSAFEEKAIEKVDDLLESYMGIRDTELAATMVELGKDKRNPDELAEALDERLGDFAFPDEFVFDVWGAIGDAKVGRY
Experiment: FRET or BRET

- binding result: binds
Binder: QLPERAFRALPSGSGPGEVPTSRGLSSGTLPGPGNEASRELESYC (domain or fragment, human, UniProt P48546 422-466, looked up, also: mCitrine-tagged) [mCitrine-tagged GIPR C-tail, wild-type]
